Measured values: patent US20220213209A1 (JOINT STOCK COMPANY BIOCAD, published 2022)
Where a chain is given by its changes, count along the chain named. Names may count otherwise.

B1: BCD166-02-01 (antibody, human IgG1, kappa)
heavy: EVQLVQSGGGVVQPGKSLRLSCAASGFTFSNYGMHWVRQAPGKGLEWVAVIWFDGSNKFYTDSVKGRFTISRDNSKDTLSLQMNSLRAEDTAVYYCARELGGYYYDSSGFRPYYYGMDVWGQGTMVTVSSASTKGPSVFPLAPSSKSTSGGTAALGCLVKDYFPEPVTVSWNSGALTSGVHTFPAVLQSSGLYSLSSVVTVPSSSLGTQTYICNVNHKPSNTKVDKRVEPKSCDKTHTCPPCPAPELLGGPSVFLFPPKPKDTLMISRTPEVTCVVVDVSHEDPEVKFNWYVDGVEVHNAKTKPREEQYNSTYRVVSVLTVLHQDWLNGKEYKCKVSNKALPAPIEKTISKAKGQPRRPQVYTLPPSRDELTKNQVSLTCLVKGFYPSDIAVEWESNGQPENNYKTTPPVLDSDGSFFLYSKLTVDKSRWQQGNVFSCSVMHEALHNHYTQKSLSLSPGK
light: DVVMTQSPSSVSASVGDRVTITCRASQSIGSWLAWYQQKPGEAPKLLIYAASTLQRGVPSRFSGGGYGTEFTLTISSLQPEDFATYFCQQSHSHPLTFGGGTKVEIKRTVAAPSVFIFPPSDEQLKSGTASVVCLLNNFYPREAKVQWKVDNALQSGNSQESVTEQDSKDSTYSLSSTLTLSKADYEKHKVYACEVTHQGLSSPVTKSFNRGEC
notes: BCD166-01-01 with the E345R mutation (EU numbering) in the IgG1 Fc; also called BCD166-02-001
B2: BCD166-01-01 (antibody, human IgG1, kappa)
heavy: not shown
light: B1 light
notes: Full-length human IgG1, kappa; also called BCD166-01-001; BCD166-NHVKITSe13-5-H3-25
B3: BCD166-01-014 (antibody, human IgG1, lambda, V domains shown)
VH: QVQLVQSGGGLVQPGGSLRLSCAASGFTFSYYWMYWVRQAPGKGLEWVSAISWNGGRTYYAESMKGRFTISRDNAQNTLYLQMNSLKSEDTAVYYCAKNRYYSDPNYGMNLWGKGTTVTVSS
VL: QSALTQPASVSGSPGQSITISCTGTSTDIGTYKYISWYQQHPGKAPKLIIYGVSHRPSGVSDRFSGSKSDNTASLTISGLQAEDEADYYCSSYTSSGTVVFGGGTKVTVLG
notes: Full-length IgG1, lambda light chain; from an immune llama-human CHARM Fab library; also called BCD166-01-14

Columns and labels:
[1] = target: T1, GITR stably expressed on the surface of HEK-293 cells (UniProt Q9Y5U5 26-241); experiment: cell-based or functional assay
T1 sequence (looked up): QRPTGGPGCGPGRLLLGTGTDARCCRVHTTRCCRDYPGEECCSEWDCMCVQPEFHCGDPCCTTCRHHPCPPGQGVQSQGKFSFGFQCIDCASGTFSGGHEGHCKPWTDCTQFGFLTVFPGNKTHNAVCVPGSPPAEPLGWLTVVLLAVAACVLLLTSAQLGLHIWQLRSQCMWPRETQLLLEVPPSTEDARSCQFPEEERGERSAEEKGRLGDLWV

human FcgRIIa131R = target: T2, human FcgRIIa131R (human, UniProt P12318 36-218, biotinylated (site not stated)); experiment: bio-layer interferometry (OctetRed 96), biotinylated receptor on streptavidin sensors, antibody in solution, pH 7.4 buffer, 30 °C
T2 construct: Biotinylated receptor on streptavidin sensors
T2 sequence (looked up): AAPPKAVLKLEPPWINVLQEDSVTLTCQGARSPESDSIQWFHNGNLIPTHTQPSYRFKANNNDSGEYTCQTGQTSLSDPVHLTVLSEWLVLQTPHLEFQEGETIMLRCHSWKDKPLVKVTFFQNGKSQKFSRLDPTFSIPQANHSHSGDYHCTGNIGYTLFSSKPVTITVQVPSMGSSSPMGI
Method: (§1) The binding affinity constants for antibody BCD166-02-01-human FcRn, FcgRIIIa158V, FcgRIIIa158F, FcgRIIa131H, FcgRIIa131R, FcgRIIb and FcgRIa interactions were determined using OctetRed 96 (ForteBio). Biotinylated receptors were immobilized on the surface of streptavidin sensors (SA). We conducted and analyzed the association and dissociation between receptors and antibody in a working buffer (PBS containing 0.1% Tween-20 and 0.1% BSA: for FcRn receptor we used pH6 buffer, for the other receptors we used pH 7.4 buffer) at 30° C. The resulting sensograms were analyzed in accordance with 1:1 or 2:1 models, the affinity constants were calculated using Octet Data Analysis Software 8.0 User Guide Copyright 2011©.

human FcgRIa = target: T3, human FcgRIa (human, UniProt P12314 16-288, limits assumed, biotinylated (site not stated)); experiment: as above
T3 construct: Biotinylated receptor on streptavidin sensors
Method: as §1

human FcgRIIa131H = target: T4, human FcgRIIa131H (human, UniProt P12318 36-218, biotinylated (site not stated)); experiment: as above
T4 construct: Biotinylated receptor on streptavidin sensors
T4 sequence (looked up): T2 sequence (looked up) with R132H
Method: as §1

human FcgRIIb = target: T5, human FcgRIIb (human, UniProt P31994 43-217, biotinylated (site not stated)); experiment: as above
T5 construct: Biotinylated receptor on streptavidin sensors
T5 sequence (looked up): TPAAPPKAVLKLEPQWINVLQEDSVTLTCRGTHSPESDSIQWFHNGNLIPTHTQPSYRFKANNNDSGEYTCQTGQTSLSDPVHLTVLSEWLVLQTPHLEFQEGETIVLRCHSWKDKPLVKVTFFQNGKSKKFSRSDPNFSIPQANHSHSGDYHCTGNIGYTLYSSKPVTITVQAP
Method: as §1

human FcgRIIIa158F = target: T6, human FcgRIIIa158F (human, UniProt P08637 17-208, biotinylated (site not stated)); experiment: as above
T6 construct: Biotinylated receptor on streptavidin sensors
Method: as §1

human FcgRIIIa158V = target: T7, human FcgRIIIa158V (human, UniProt P08637 17-208, biotinylated (site not stated)); experiment: as above
T7 construct: Biotinylated receptor on streptavidin sensors
Method: as §1

human FcRn = target: T8, human FcRn (human, UniProt P55899 24-297; P61769 21-119, biotinylated (site not stated)); experiment: bio-layer interferometry (OctetRed 96), biotinylated receptor on streptavidin sensors, antibody in solution, pH 6 buffer, 30 °C
T8 construct: Biotinylated receptor on streptavidin sensors
Method: as §1

macaca Cynomolgus GITR = target: T9, macaca Cynomolgus GITR (Macaca cynomolgus); experiment: BLI OctetRed 96, antigen on AR2G sensors, antibody in solution, 1:1 model
T9 construct: also called cynomolgus monkey GITR; monkey GITR
Method: (§2) Binding affinity constants for anti-GITR antibodies and rhesus macaque/cynomolgus monkey GITR were obtained using OctetRed 96 according to manufacturer's (ForteBio) protocol. Antigen 25 μg/ml was non-specifically immobilized onto the surface of amine-reactive sensors of the second generation (AR2G) (ForteBio, using standard protocol according to manufacturer's instructions for preparation and immobilization of AR2G sensors). […] The assay was conducted at 30° C. using PBS comprising 0.1% Tween-20 and 0.1% BSA as a working buffer.
(§3) The resulting sensograms, after subtracting a reference signal, were analyzed using Octet Data Analysis software (Version 8.0) in accordance with the standard procedure and using 1:1 interaction model.

macaca mulatta GITR = target: T10, macaca mulatta GITR (Macaca mulatta, UniProt F7DDV8 20-156); experiment: as above
T10 construct: also called rhesus macaque GITR; mcyGITR Macaca mulatta
T10 sequence: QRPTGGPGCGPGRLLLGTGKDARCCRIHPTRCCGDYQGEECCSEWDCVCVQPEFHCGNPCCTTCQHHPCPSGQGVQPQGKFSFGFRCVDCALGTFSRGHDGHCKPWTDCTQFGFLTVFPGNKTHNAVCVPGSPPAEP
Method: as §2, §3

murine GITR-Fc = target: T11, murine GITR-Fc (Mus musculus, UniProt O35714 20-153); experiment: ELISA, plate coated with mouse GITR-Fc 0.5 µg/ml, antibody titrated 10 to 0.02 µg/ml
T11 construct: extracellular domain; also called mouse GITR; musGITR
T11 sequence (looked up): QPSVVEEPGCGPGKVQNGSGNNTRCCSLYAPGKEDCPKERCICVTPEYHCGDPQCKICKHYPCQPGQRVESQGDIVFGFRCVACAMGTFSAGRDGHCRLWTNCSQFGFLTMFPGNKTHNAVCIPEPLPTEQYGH
Method: ELISA was used to measure relative affinity of antibodies against GITR-Fc from different organisms. For binding assay, ELISA plate wells (medium binding from Greiner bio one) were coated with 50 μl of human/cynomolgus/murine GITR-Fc (0.5 μg/ml in 1× carbonate buffer), sealed and incubated overnight at 4° C. All further steps were performed in accordance with the standard ELISA protocol described in Example 6. […] Therefore, candidate BCD166-01-011 was excluded from further study due to the lack of apparent specificity for the monkey GITR. Candidates BCD166-01-01 and BCD166-01-014 were finalized for further development.

[2] = target: T12, recombinant human GITR antigen (extracellular domain) (human, UniProt Q9Y5U5 26-162); experiment: BLI OctetRed 96, antigen on AR2G sensors, antibody in solution, 1:1 model
T12 construct: extracellular domain
T12 sequence (looked up): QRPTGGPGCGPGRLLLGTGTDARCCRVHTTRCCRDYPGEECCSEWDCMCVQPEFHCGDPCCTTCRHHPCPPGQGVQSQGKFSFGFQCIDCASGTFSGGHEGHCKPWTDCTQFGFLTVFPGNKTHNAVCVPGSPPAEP
Method: Binding affinity constants for anti-GITR antibody-human/rhesus macaque/cynomolgus monkey GITR interactions were determined using OctetRed 96 according to manufacturer (ForteBio) protocol. Antigen 25 μg/ml was non-specifically immobilized onto the surface of amine-reactive sensors of the second generation (AR2G) (ForteBio, using standard protocol according to manufacturer's instructions for preparation and immobilization of AR2G sensors). […] The assay was conducted at 30° C. using PBS comprising 0.1% Tween-20 and 0.1% BSA as a working buffer.
The resulting sensograms, after subtracting a reference signal, were analyzed using Octet Data Analysis software (Version 8.0) in accordance with the standard procedure and using 1:1 interaction model. All tested antibodies show high affinity and specificity for human GITR.

T7 sequence (P08637 17-208 F176V limits assumed): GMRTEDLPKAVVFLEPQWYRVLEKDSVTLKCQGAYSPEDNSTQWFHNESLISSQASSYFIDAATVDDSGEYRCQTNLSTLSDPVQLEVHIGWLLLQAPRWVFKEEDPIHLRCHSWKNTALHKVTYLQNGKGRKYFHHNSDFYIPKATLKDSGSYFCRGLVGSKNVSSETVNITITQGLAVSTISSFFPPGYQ
T6 sequence (P08637 17-208 limits assumed): as the sequence (P08637 17-208 F176V limits assumed) above, with V160F counted along it
T8 sequence (P55899 24-297 limits assumed, chain 1 of 2): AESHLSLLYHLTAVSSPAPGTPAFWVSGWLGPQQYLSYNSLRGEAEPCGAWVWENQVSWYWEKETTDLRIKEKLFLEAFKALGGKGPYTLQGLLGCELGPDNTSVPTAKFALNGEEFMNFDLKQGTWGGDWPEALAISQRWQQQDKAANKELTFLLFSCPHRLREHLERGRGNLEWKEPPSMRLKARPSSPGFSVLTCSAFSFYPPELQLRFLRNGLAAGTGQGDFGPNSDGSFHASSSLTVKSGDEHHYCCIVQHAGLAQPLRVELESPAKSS
T8 sequence (P61769 21-119 limits assumed, chain 2 of 2): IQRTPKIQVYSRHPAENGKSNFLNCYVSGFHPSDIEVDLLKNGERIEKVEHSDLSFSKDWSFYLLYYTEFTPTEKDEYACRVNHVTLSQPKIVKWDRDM
T3 sequence (P12314 16-288 limits assumed): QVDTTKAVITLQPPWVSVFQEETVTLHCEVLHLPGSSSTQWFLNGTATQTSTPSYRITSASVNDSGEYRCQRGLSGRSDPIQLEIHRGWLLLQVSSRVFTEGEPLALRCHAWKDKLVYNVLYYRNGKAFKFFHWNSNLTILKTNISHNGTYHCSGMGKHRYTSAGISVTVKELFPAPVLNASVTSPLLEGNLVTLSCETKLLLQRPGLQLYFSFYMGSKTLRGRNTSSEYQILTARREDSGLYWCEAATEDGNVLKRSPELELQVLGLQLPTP

| Binder | EC50 in ADCC reporter assay (Jurkat-NFAT-Luc-CD16 effector cells, Hek-293-GITR target cells) [1] | EC50 in cell agonist assay (HEK293-GITR-NFkB-Luc) [1] | level of activation in cell agonist assay (HEK293-GITR-NFkB-Luc) [1] | Kd (human FcgRIIa131R) [nM] | Kd (human FcgRIa) [nM] | Kd (human FcgRIIa131H) [nM] | Kd (human FcgRIIb) [nM] | Kd (human FcgRIIIa158F) [nM] | Kd (human FcgRIIIa158V) [nM] | Kd (human FcRn) [nM] | Kd (macaca Cynomolgus GITR) [nM] | Kd (macaca mulatta GITR) [nM] | binding result (murine GITR-Fc) | Kd [2] [nM] |
| --- | --- | --- | --- | --- | --- | --- | --- | --- | --- | --- | --- | --- | --- | --- |
| B1 | 40 fold, against BCD166-01-01 | 20 fold, against BCD166-01-01 | 5 fold, against BCD166-01-01 | 40.2 | 0.723 | 72.2 | 557 | 1420 | 118 | 27 | – | – | – | – |
| B2 | – | – | – | – | – | – | – | – | – | – | 0.542 | 0.0924 | no binding (tested: 10 µg/ml) | 0.0638 |
| B3 | – | – | – | – | – | – | – | – | – | – | 55.3 | 0.192 | no binding (tested: 10 µg/ml) | 8.5 |
